{
  "source": "the supplement of paper PMC9112550",
  "about": "“Optimization of the antimicrobial peptide Bac7 by deep mutational scanning” (BMC Biology, 2022);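 further: peptides expressed intracellularly from a pBAD plasmid library in pooled LB shake-flask culture, induced with 0.3% L-arabinose, DNA abundance read by NGS, three biological replicates, DESeq2 with apeglm shrinkage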",
  "data": [
    {"tested_on": "Escherichia coli TOP10", "experiment": "shrunken log2 fold change of peptide-encoding DNA abundance (4.5 h post-induction vs induction); higher = less antimicrobial activity (less host growth inhibition)", "conditions": "time post-induction: 4.5 h; library: site-saturation at positions 5, 18, 19, 20", "values": [
      {"sequence": "RRIRRRPPRLPRPRPRPDNIPRP", "shrunken log2 fold change": 0.123},
      {"sequence": "RRIRERPPRLPRPRPRPFPFPRP", "shrunken log2 fold change": -0.629},
      {"sequence": "RRIRCRPPRLPRPRPRPHVCPRP", "shrunken log2 fold change": 0.0221},
      {"sequence": "RRIRCRPPRLPRPRPRPIKIPRP", "shrunken log2 fold change": -0.436},
      {"sequence": "RRIRNRPPRLPRPRPRPSVDPRP", "shrunken log2 fold change": -0.0699},
      {"sequence": "RRIRVRPPRLPRPRPRPEFSPRP", "shrunken log2 fold change": -0.0024},
      {"sequence": "RRIRDRPPRLPRPRPRPISQPRP", "shrunken log2 fold change": 0.12},
      {"sequence": "RRIRDRPPRLPRPRPRPVTEPRP", "shrunken log2 fold change": 0.0911},
      {"sequence": "RRIRCRPPRLPRPRPRPHPPPRP", "shrunken log2 fold change": 0.809},
      {"sequence": "RRIRTRPPRLPRPRPRPFVYPRP", "shrunken log2 fold change": -0.639},
      {"sequence": "RRIRPRPPRLPRPRPRPCKGPRP", "shrunken log2 fold change": -0.252},
      {"sequence": "RRIRWRPPRLPRPRPRPQMAPRP", "shrunken log2 fold change": 0.242},
      {"sequence": "RRIRIRPPRLPRPRPRPDWLPRP", "shrunken log2 fold change": -0.166},
      {"sequence": "RRIRCRPPRLPRPRPRPNHLPRP", "shrunken log2 fold change": -0.437},
      {"sequence": "RRIRQRPPRLPRPRPRPTCRPRP", "shrunken log2 fold change": 0.133},
      {"sequence": "RRIRWRPPRLPRPRPRPYPMPRP", "shrunken log2 fold change": -0.128},
      {"sequence": "RRIRWRPPRLPRPRPRPPPTPRP", "shrunken log2 fold change": 1.59},
      {"sequence": "RRIRLRPPRLPRPRPRPDGKPRP", "shrunken log2 fold change": -0.0351},
      {"sequence": "RRIRIRPPRLPRPRPRPCIDPRP", "shrunken log2 fold change": -0.0398},
      {"sequence": "RRIRWRPPRLPRPRPRPKLSPRP", "shrunken log2 fold change": -0.0389},
      {"sequence": "RRIRLRPPRLPRPRPRPKHYPRP", "shrunken log2 fold change": -0.406},
      {"sequence": "RRIRWRPPRLPRPRPRPGLDPRP", "shrunken log2 fold change": 0.601},
      {"sequence": "RRIRCRPPRLPRPRPRPIYEPRP", "shrunken log2 fold change": -0.576},
      {"sequence": "RRIRMRPPRLPRPRPRPVHEPRP", "shrunken log2 fold change": -0.232},
      {"sequence": "RRIRARPPRLPRPRPRPDKMPRP", "shrunken log2 fold change": 0.104},
      {"sequence": "RRIRCRPPRLPRPRPRPERWPRP", "shrunken log2 fold change": 0.877},
      {"sequence": "RRIRSRPPRLPRPRPRPNAWPRP", "shrunken log2 fold change": -0.0228},
      {"sequence": "RRIRRRPPRLPRPRPRPLNCPRP", "shrunken log2 fold change": -0.304},
      {"sequence": "RRIRDRPPRLPRPRPRPRSWPRP", "shrunken log2 fold change": 0.131},
      {"sequence": "RRIRSRPPRLPRPRPRPAVFPRP", "shrunken log2 fold change": 0.114},
      {"sequence": "RRIRDRPPRLPRPRPRPAAWPRP", "shrunken log2 fold change": 1.56},
      {"sequence": "RRIRQRPPRLPRPRPRPPWNPRP", "shrunken log2 fold change": 0.0241},
      {"sequence": "RRIRWRPPRLPRPRPRPLPVPRP", "shrunken log2 fold change": -0.0992},
      {"sequence": "RRIRFRPPRLPRPRPRPSMEPRP", "shrunken log2 fold change": -0.202},
      {"sequence": "RRIRDRPPRLPRPRPRPVMEPRP", "shrunken log2 fold change": 0.532},
      {"sequence": "RRIRHRPPRLPRPRPRPYESPRP", "shrunken log2 fold change": -0.0531},
      {"sequence": "RRIRERPPRLPRPRPRPKRSPRP", "shrunken log2 fold change": -0.0414},
      {"sequence": "RRIRKRPPRLPRPRPRPGWMPRP", "shrunken log2 fold change": 0.269},
      {"sequence": "RRIRVRPPRLPRPRPRPHKEPRP", "shrunken log2 fold change": 0.0216},
      {"sequence": "RRIRDRPPRLPRPRPRPKTCPRP", "shrunken log2 fold change": 0.00179},
      {"sequence": "RRIRIRPPRLPRPRPRPDIEPRP", "shrunken log2 fold change": -0.185},
      {"sequence": "RRIRVRPPRLPRPRPRPDIEPRP", "shrunken log2 fold change": -0.0848},
      {"sequence": "RRIRQRPPRLPRPRPRPPTTPRP", "shrunken log2 fold change": -0.0101},
      {"sequence": "RRIRLRPPRLPRPRPRPLDIPRP", "shrunken log2 fold change": -0.15},
      {"sequence": "RRIRTRPPRLPRPRPRPGNFPRP", "shrunken log2 fold change": -0.0548},
      {"sequence": "RRIRLRPPRLPRPRPRPVRTPRP", "shrunken log2 fold change": 0.175},
      {"sequence": "RRIRNRPPRLPRPRPRPRRTPRP", "shrunken log2 fold change": 0.135},
      {"sequence": "RRIRNRPPRLPRPRPRPPQSPRP", "shrunken log2 fold change": 0.331},
      {"sequence": "RRIRYRPPRLPRPRPRPLNNPRP", "shrunken log2 fold change": -1.29},
      {"sequence": "RRIRPRPPRLPRPRPRPFGIPRP", "shrunken log2 fold change": -0.21},
      {"sequence": "RRIRWRPPRLPRPRPRPTCFPRP", "shrunken log2 fold change": 0.0863},
      {"sequence": "RRIRKRPPRLPRPRPRPPFRPRP", "shrunken log2 fold change": 0.566},
      {"sequence": "RRIRFRPPRLPRPRPRPANQPRP", "shrunken log2 fold change": -0.165},
      {"sequence": "RRIRIRPPRLPRPRPRPHDFPRP", "shrunken log2 fold change": 0.0334},
      {"sequence": "RRIRQRPPRLPRPRPRPNPQPRP", "shrunken log2 fold change": 0.129},
      {"sequence": "RRIRYRPPRLPRPRPRPDPEPRP", "shrunken log2 fold change": -0.345},
      {"sequence": "RRIRIRPPRLPRPRPRPKGNPRP", "shrunken log2 fold change": -0.459},
      {"sequence": "RRIRDRPPRLPRPRPRPKMVPRP", "shrunken log2 fold change": 0.223},
      {"sequence": "RRIRWRPPRLPRPRPRPRKMPRP", "shrunken log2 fold change": 0.382},
      {"sequence": "RRIRGRPPRLPRPRPRPEMHPRP", "shrunken log2 fold change": 0.242},
      {"sequence": "RRIRSRPPRLPRPRPRPNASPRP", "shrunken log2 fold change": 0.233},
      {"sequence": "RRIRVRPPRLPRPRPRPADTPRP", "shrunken log2 fold change": -0.32},
      {"sequence": "RRIRYRPPRLPRPRPRPTNSPRP", "shrunken log2 fold change": -0.342},
      {"sequence": "RRIRARPPRLPRPRPRPPEPPRP", "shrunken log2 fold change": 0.686},
      {"sequence": "RRIRSRPPRLPRPRPRPVTIPRP", "shrunken log2 fold change": -0.373},
      {"sequence": "RRIRGRPPRLPRPRPRPEVTPRP", "shrunken log2 fold change": 0.168},
      {"sequence": "RRIRMRPPRLPRPRPRPFTQPRP", "shrunken log2 fold change": 0.215},
      {"sequence": "RRIRFRPPRLPRPRPRPINGPRP", "shrunken log2 fold change": -0.0164},
      {"sequence": "RRIRYRPPRLPRPRPRPAFYPRP", "shrunken log2 fold change": -0.513},
      {"sequence": "RRIRHRPPRLPRPRPRPDTLPRP", "shrunken log2 fold change": 0.00779},
      {"sequence": "RRIRNRPPRLPRPRPRPIILPRP", "shrunken log2 fold change": -0.234},
      {"sequence": "RRIRQRPPRLPRPRPRPNTVPRP", "shrunken log2 fold change": -0.369},
      {"sequence": "RRIRLRPPRLPRPRPRPGCFPRP", "shrunken log2 fold change": 0.269},
      {"sequence": "RRIRYRPPRLPRPRPRPQTAPRP", "shrunken log2 fold change": -0.0183},
      {"sequence": "RRIRDRPPRLPRPRPRPNSTPRP", "shrunken log2 fold change": -0.295}
    ]}
  ]
}
